This passage reports Ka and binding signal results from paper PMC5787697, “Transcriptome-wide identification of the RNA-binding landscape of the chromatin-associated protein PARP1 reveals functions in RNA biogenesis”.

For data set [1], the target named is T1, PARP1-FL (human, UniProt P09874 1-1014). Put plainly: EMSA; monomer-equivalent K, n=1.70±0.14; 25 mM Tris pH 7.5, 75 mM NaCl, 50 mM arginine, 0.1 mM TCEP, 0.1 ug/ul BSA, room temperature 30 min; 0.05 uM probe, 0-2.5 uM protein; native 10% PAGE in TBE. The following applies: protein: recombinant; tags: His; chain copies: 2; label: 32P; single strand.
Data set [2] addresses T2, PARP1-ΔCAT (human, UniProt P09874 1-662). Kind of data set: EMSA; monomer-equivalent K, n=2.04±0.13; 25 mM Tris pH 7.5, 75 mM NaCl, 50 mM arginine, 0.1 mM TCEP, 0.1 ug/ul BSA, room temperature 30 min; 0.05 uM probe, 0-2.5 uM protein; native 10% PAGE in TBE. The following applies: protein: recombinant; tags: His; chain copies: 2; label: 32P; single strand. (In general: Mobility shift assays separate free from complexed probe on a gel.)

Data set [3] has as its target T3, PARP1-ΔZn1ΔZn2 (human, UniProt P09874 216-1014). Put plainly: EMSA; monomer-equivalent K, n=2.04±0.15; 25 mM Tris pH 7.5, 75 mM NaCl, 50 mM arginine, 0.1 mM TCEP, 0.1 ug/ul BSA, room temperature 30 min; 0.05 uM probe, 0-2.5 uM protein; native 10% PAGE in TBE. The following applies: protein: recombinant; tags: His; chain copies: 2; label: 32P; single strand.
The target in data set [4] is T3, PARP1-ΔZn1ΔZn2. Put plainly: competition EMSA; vs N1 in same reaction; 25 mM Tris pH 7.5, 75 mM NaCl, 50 mM arginine, 0.1 mM TCEP, 0.1 ug/ul BSA, room temperature 30 min; 0.05 uM probe, 0-2.5 uM protein; native 10% PAGE in TBE. Particulars: protein: recombinant; tags: His; chain copies: 2; label: 32P; single strand.
The target in data set [5] is T1, PARP1-FL. The description is as above. The following applies: protein: recombinant; tags: His; label: 32P; single strand.
Data set [6] has as its target T2, PARP1-ΔCAT. Described as above. The following applies: protein: recombinant; tags: His; chain copies: 2; label: 32P; single strand.
Data set [7] concerns the target T3, PARP1-ΔZn1ΔZn2. Kind of data set: EMSA; monomer-equivalent K, n=2.16±0.19; 25 mM Tris pH 7.5, 75 mM NaCl, 50 mM arginine, 0.1 mM TCEP, 0.1 ug/ul BSA, room temperature 30 min; 0.05 uM probe, 0-2.5 uM protein; native 10% PAGE in TBE. The following applies: protein: recombinant; tags: His; chain copies: 2; label: 32P; single strand.
Data set [8] has as its target T1, PARP1-FL. Put plainly: EMSA; monomer-equivalent K, n=2.17±0.15; 25 mM Tris pH 7.5, 75 mM NaCl, 50 mM arginine, 0.1 mM TCEP, 0.1 ug/ul BSA, room temperature 30 min; 0.05 uM probe, 0-2.5 uM protein; native 10% PAGE in TBE. The following applies: protein: recombinant; tags: His; chain copies: 2; label: 32P; single strand.
Data set [9] deals with T2, PARP1-ΔCAT. Kind of data set: EMSA; monomer-equivalent K, n=2.77±0.13; 25 mM Tris pH 7.5, 75 mM NaCl, 50 mM arginine, 0.1 mM TCEP, 0.1 ug/ul BSA, room temperature 30 min; 0.05 uM probe, 0-2.5 uM protein; native 10% PAGE in TBE. Particulars: protein: recombinant; tags: His; chain copies: 2; label: 32P; single strand.

T2 sequence (P09874 1-662, stated change not applied): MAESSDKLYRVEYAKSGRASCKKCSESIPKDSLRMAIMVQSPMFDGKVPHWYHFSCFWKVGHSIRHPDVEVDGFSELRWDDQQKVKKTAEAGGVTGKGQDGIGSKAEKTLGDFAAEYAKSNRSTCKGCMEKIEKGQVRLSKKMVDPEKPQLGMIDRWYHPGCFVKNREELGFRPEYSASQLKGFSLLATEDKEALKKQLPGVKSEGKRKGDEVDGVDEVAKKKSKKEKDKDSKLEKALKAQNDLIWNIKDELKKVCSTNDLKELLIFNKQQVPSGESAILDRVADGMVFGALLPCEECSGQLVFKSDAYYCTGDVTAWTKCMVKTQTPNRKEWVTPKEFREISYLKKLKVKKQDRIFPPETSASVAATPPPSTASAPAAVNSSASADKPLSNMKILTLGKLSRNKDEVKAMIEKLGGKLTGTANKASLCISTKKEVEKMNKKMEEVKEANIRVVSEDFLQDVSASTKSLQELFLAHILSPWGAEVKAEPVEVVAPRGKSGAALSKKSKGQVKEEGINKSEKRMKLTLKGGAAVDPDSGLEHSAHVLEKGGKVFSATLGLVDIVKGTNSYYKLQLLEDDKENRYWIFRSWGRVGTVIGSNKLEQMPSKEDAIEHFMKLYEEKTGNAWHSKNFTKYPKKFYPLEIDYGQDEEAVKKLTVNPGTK
T1 sequence (P09874 whole entry): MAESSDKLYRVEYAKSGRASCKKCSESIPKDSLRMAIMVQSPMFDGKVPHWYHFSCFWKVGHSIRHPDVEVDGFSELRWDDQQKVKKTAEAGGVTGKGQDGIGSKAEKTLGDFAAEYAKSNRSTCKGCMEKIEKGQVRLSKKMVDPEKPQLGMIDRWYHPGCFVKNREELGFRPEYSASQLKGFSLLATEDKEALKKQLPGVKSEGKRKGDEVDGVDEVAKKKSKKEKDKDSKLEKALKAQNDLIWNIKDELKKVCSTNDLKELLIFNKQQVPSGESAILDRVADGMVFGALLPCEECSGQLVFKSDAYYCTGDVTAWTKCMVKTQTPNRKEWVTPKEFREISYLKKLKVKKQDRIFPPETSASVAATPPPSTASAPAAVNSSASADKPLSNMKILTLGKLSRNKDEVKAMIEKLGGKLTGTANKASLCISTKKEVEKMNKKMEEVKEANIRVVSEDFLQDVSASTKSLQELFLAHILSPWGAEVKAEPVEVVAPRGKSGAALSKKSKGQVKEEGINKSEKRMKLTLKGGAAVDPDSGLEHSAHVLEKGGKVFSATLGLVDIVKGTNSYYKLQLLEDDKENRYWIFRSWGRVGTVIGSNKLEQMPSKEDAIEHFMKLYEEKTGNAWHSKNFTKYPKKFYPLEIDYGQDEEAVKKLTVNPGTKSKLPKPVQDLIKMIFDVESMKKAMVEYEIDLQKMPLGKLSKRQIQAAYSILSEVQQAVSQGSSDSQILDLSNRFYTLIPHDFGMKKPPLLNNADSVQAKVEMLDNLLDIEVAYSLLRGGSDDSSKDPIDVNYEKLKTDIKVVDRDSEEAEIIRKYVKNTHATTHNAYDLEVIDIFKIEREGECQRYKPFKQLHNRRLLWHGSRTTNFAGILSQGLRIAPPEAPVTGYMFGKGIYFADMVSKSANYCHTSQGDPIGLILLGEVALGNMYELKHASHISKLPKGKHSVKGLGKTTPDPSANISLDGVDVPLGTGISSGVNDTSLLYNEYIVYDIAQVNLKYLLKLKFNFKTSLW
T3 sequence (P09874 216-1014, stated change not applied): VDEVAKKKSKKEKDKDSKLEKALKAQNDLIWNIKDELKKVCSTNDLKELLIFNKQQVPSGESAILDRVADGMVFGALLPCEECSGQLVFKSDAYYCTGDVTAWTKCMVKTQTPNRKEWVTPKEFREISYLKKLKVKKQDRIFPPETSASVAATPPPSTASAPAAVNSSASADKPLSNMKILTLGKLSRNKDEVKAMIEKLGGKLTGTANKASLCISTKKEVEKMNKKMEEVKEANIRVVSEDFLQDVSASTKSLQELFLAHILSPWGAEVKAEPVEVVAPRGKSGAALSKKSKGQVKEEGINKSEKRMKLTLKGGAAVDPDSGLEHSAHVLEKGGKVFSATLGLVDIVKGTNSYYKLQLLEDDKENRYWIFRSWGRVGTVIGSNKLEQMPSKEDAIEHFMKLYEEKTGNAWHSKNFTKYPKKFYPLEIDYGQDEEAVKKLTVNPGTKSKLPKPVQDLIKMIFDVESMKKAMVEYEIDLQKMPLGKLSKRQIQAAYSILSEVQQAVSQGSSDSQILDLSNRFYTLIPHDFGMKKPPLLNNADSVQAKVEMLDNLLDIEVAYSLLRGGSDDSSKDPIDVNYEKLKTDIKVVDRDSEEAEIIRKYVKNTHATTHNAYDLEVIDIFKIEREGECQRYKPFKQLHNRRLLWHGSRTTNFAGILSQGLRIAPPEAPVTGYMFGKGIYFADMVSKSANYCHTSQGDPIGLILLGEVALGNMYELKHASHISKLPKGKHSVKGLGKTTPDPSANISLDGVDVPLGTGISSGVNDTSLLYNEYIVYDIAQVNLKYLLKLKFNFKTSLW

B1: 20-mer ssRNA (ssRNA)
RNA: CCGUACGCGGGUUUAAACGA
Regarding B1, the Ka in the data set with PARP1-FL [1] stood at 2.43e+06 M⁻¹; with PARP1-ΔCAT [2] it was 770000 M⁻¹; with PARP1-ΔZn1ΔZn2 [3], 1.13e+06 M⁻¹.

B2: 19-mer ssDNA (ssDNA)
DNA: TAGGCACCGGCATCTTGAC
Turning to B2, the binding signal in the data set with PARP1-ΔZn1ΔZn2 [4] was found to be 0.0153 ± 0.021 KDNA/KRNA; with PARP1-FL [5] it was 25.3 ± 3 KDNA/KRNA; with PARP1-ΔCAT [6], 15.7 ± 3.9 KDNA/KRNA.

B3: 24-mer ssRNA (ssRNA)
RNA: CGUACGCGGAAUAGUUUAAACUGU
For B3, the Ka in the data set with PARP1-ΔZn1ΔZn2 [7] is 1.91e+06 M⁻¹; in the data set with PARP1-FL [8], 2.88e+06 M⁻¹; in the data set with PARP1-ΔCAT [9], 2.91e+06 M⁻¹.
